# Source: patent publication EP4813396A2 (Amphivena Therapeutics, Inc., dated 2026)
# Substitutions are numbered along the chain they refer to.
# B1: CD33/CD3 tandem diabody 20 (bispecific antibody)
# chain: DIQMTQSPSSLSASVGDRVTITCRSSTGAVTTSNYANWVQQKPGKAPKGLIGGTNKRAPGVPSRFSGSLIGTDFTLTISSLQPEDFATYYCALWYSNLWVFGQGTKVEIKGGSGGSQVQLVQSGAEVKKPGASVKVSCKASGYTFTSYYMHWVRQAPGQGLEWMGIINPSGGSTSYAQKFQGRVTMTRDTSTSTVYMELSSLRSEDTAVYYCARDVVPAAIDYYGMDVWGQGTTVTVSSGGSGQSVLTQPPSASGTPGQRVTISCSGSSSNIGSNTVNWYQQLPGTAPKLLIYSDNQRPSGVPDRFSGSKSGSSASLAISGLQSDDEADYYCATWDDSLNGAVFGGGTKLTVLGGSGGSEVQLVESGGGLVQPGGSLRLSCAASGFTFSTYAMNWVRQAPGKGLEWVGRIRSKYNNYATYYADSVKDRFTISRDDSKNSLYLQMNSLKTEDTAVYYCARHGNFGNSYVSWFAYWGQGTLVTVSS
# notes: Non-covalent homodimer; domain order 1; also called TandAb 20
# B2: CD33/CD3 tandem diabody 10 (bispecific antibody)
# chain: DIQMTQSPSSLSASVGDRVTITCRSSTGAVTTSNYANWVQQKPGKAPKGLIGGTNKRAPGVPSRFSGSLIGDKATLTISSLQPEDFATYYCALWYSNLWVFGQGTKVEIKGGSGGSQVQLVQSGAEVKKPGASVKVSCKASGYTFTSYDINWVRQAPGQGLEWMGWMNPNSGNTGFAQKFQGRVTMTRDTSTSTVYMELSSLRSEDTAVYYCARDRANTDYSFGMDVWGQGTLVTVSSGGSGQSVLTQPPSASGTPGQRVTISCSGSRSNIGSNTVNWYQQLPGTAPKLLIYGNNQRPSGVPDRFSGSKSGTSASLAISGLQSEDEADYYCATWDDSLIGWVFGGGTKLTVLGGSGGSEVQLVESGGGLVQPGGSLRLSCAASGFTFSTYAMNWVRQAPGKGLEWVGRIRSKYNNYATYYADSVKDRFTISRDDSKNSLYLQMNSLKTEDTAVYYCARHGNFGNSYVSWFAYWGQGTLVTVSSAAAGSHHHHHH
# notes: Non-covalent homodimer; domain order 1; also called TandAb 10
# B3: CD33/CD3 tandem diabody 04 (bispecific antibody)
# chain: B2 chain with S63A, L69G, I70S, D72T, K73D, A74F, F223L
# notes: Non-covalent homodimer; domain order 1; also called TandAb 04; tandem diabody 4
# B4: CD33/CD3 tandem diabody 11 (bispecific antibody)
# chain: B2 chain with F223L
# notes: Non-covalent homodimer; domain order 1; also called TandAb 11
# B5: CD33/CD3 tandem diabody 01 (bispecific antibody)
# chain: B2 chain with S63A, L69G, I70S, D72T, K73D, A74F, Y221F, F223Y, T312S
# notes: Non-covalent homodimer; domain order 1 VL(CD3)-L1-VH(CD33)-L2-VL(CD33)-L3-VH(CD3); also called TandAb 01; tandem diabody 1
# B6: CD33/CD3 tandem diabody 09 (bispecific antibody)
# chain: B2 chain with Y221F, F223Y, T312S
# notes: Non-covalent homodimer; domain order 1; also called TandAb 09; tandem diabody 9
# B7: CD33/CD3 tandem diabody 15 (bispecific antibody)
# chain: B2 chain with G49A, W469Y
# notes: Non-covalent homodimer; domain order 1; also called TandAb 15
# B8: CD33/CD3 tandem diabody 03 (bispecific antibody)
# chain: B2 chain with S63A, L69G, I70S, D72T, K73D, A74F
# notes: Non-covalent homodimer; domain order 1; also called TandAb 03; tandem diabody 3
# B9: CD33/CD3 tandem diabody 02 (bispecific antibody)
# chain: B2 chain with S63A, L69G, I70S, D72T, K73D, A74F, N218V, S222Y, F223Y
# notes: Non-covalent homodimer; domain order 1; also called TandAb 02; tandem diabody 2
# B10: CD33/CD3 tandem diabody 18 (bispecific antibody)
# chain: EVQLVESGGGLVQPGGSLRLSCAASGFTFSTYAMNWVRQAPGKGLEWVGRIRSKYNNYATYYADSVKDRFTISRDDSKNSLYLQMNSLKTEDTAVYYCARHGNFGNSYVSYFAYWGQGTLVTVSSGGSGGSQSVLTQPPSVSGAPGQRVTISCTGSSSNIGAGYDVHWYQQLPGTAPKLLIYGNSNRPSGVPDRFSGSKSGTSASLAITGLQAEDEADYYCQSYDSSLSDVVFGGGTKLTVLGGSGQVQLVQSGAEVKKPGESLKISCKGSGYSFTSYWIGWVRQMPGKGLEWMGIIYPGDSDTRYSPSFQGQVTISADKSISTAYLQWSSLKASDTAMYYCARHKRGSDAFDIWGQGTTVTVSSGGSGGSDIQMTQSPSSLSASVGDRVTITCRSSTGAVTTSNYANWVQQKPGKAPKALIGGTNKRAPGVPSRFSGSLIGDKATLTISSLQPEDFATYYCALWYSNLWVFGQGTKVEIKAAAGSHHHHHH
# notes: Non-covalent homodimer; domain order 2 VH(CD3)-L1-VL(CD33)-L2-VH(CD33)-L3-VL(CD3); also called TandAb 18
# B11: CD33/CD3 tandem diabody 08 (bispecific antibody)
# chain: QSVLTQPPSASGTPGQRVTISCSGSRSNIGSNTVNWYQQLPGTAPKLLIYGNNQRPSGVPDRFSGSKSGSSASLAISGLQSEDEADYYCATWDDSLIGWVFGGGTKLTVLGGSGGSEVQLVESGGGLVQPGGSLRLSCAASGFTFSTYAMNWVRQAPGKGLEWVGRIRSKYNNYATYYADSVKDRFTISRDDSKNSLYLQMNSLKTEDTAVYYCARHGNFGNSYVSYFAYWGQGTLVTVSSGGSGGSDIQMTQSPSSLSASVGDRVTITCRSSTGAVTTSNYANWVQQKPGKAPKALIGGTNKRAPGVPSRFSGSLIGDKATLTISSLQPEDFATYYCALWYSNLWVFGQGTKVEIKGGSGGSQVQLVQSGAEVKKPGASVKVSCKASGYTFTSYDINWVRQAPGQGLEWMGWMNPNSGNTGFAQKFQGRVTMTRDTSTSTVYMELSSLRSEDTAVYYCARDRANTDFSYGMDVWGQGTLVTVSSAAAGSHHHHHH
# notes: Non-covalent homodimer; domain order 3 VL(CD33)-L1-VH(CD3)-L2-VL(CD3)-L3-VH(CD33); also called TandAb 08; tandem diabody 8
# Target: T1, human CD33 on cells (human, UniProt P20138 18-364)
# T1 construct: whole, on cells; also called huCD33
# T1 sequence (P20138 18-364): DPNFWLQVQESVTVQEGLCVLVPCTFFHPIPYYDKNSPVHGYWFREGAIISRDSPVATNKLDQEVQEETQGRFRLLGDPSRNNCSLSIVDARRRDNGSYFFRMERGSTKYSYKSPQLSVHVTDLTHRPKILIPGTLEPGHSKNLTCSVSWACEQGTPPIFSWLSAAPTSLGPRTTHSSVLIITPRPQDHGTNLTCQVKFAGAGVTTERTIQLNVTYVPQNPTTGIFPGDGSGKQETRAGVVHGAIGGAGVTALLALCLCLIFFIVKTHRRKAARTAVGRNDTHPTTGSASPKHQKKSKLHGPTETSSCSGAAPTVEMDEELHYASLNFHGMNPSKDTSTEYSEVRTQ
# Assay: flow cytometry, HL-60 cells
row,Binder,Kd [nM]
1,B1,4.1
2,B2,0.5
3,B3,0.5
4,B4,0.3
5,B5,0.6
6,B6,0.5
7,B7,0.4
8,B8,1.1
9,B9,0.2

# Target: T1, human CD33 on cells
# Assay: cell-based or functional assay
row,Binder,EC50 on HL-60 [pM] (cytotoxicity)
1,B1,10
2,B2,7
3,B3,1.8
4,B4,5.9
5,B5,1.9
6,B6,6.8
7,B7,1.8
8,B8,3.6
9,B9,0.5
10,B10,6.3
11,B11,1.8

# Target: cynomolgus CD33 on CHO cells (cynomolgus monkey)
# Assay: flow cytometry; KD on CHO-cynomolgus CD33 cells divided by KD on CHO-human CD33 cells
row,Binder,KD ratio cynoCD33/ huCD33
1,B1,33.8
2,B2,0.8
3,B3,1.1
4,B4,1.2
5,B5,0.7
6,B6,1
7,B7,1.1
8,B8,0.6
9,B9,1.1
10,B10,3.1
11,B11,0.6

# Target: T2, human CD3 on T cells (human, UniProt P07766 23-207)
# T2 construct: whole, on cells; also called hu CD3; CD3 on Jurkat cells
# T2 sequence (P07766 23-207): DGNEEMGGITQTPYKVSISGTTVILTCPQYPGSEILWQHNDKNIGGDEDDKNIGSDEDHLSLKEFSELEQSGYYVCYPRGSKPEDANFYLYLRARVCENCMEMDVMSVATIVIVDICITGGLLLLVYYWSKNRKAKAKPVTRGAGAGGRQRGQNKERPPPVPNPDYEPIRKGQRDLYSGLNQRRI
# Assay: flow cytometry, human T-cells (as headed in Table 10)
row,Binder,Kd [nM]
1,B1,144
2,B2,1.9
3,B3,79.3
4,B4,2.6
5,B5,94.2
6,B6,2.4
7,B7,1.3
8,B8,81.9
9,B9,69.8

# Target: T2, human CD3 on T cells
# Assay: flow cytometry, titration on human CD3+ T cells (Jurkat per paragraph 124/paragraph 125)
row,Binder,Kd [nM]
1,B1,144
2,B2,1.9
3,B3,79.3
4,B4,2.6
5,B5,94.2
6,B6,2.4
7,B7,1.3
8,B8,81.9
9,B9,69.8
10,B10,1.9
11,B11,2.4

# Target: T1, human CD33 on cells
# Assay: flow cytometry, titration on U-937 cells
row,Binder,Kd [nM]
1,B1,7.2
2,B2,1.7
3,B3,1.7
4,B4,0.6
5,B5,7.1
6,B6,2.2
7,B7,0.9
8,B8,8.9
9,B9,0.9
10,B10,15.1
11,B11,1.8

# Target: T2, human CD3 on T cells
# Assay: cell-based or functional assay
Binder,CD25 Induction EC50 (pM),CD69 Induction EC50 (pM),T cell Proliferation in PBMC EC50 (pM)
B1,98,75,19
B2,10,6,6
B3,94,62,44
B4,11,5,6
B5,92,91,89
B6,11,7,9
B7,6,7,7
B8,117,87,63
B9,42,27,4

# Target: T1, human CD33 on cells
# Assay: flow cytometry, titration on KG-1 cells
row,Binder,Kd [nM]
1,B1,7
2,B2,1
3,B3,0.5
4,B4,0.5
5,B5,0.9
6,B6,0.3
7,B7,0.3
8,B8,1.8
9,B9,0.3
10,B10,16.3
11,B11,0.5

# Target: T1, human CD33 on cells
# Assay: flow cytometry, titration on HL-60 cells
row,Binder,Kd [nM]
1,B1,4.1
2,B2,0.5
3,B3,0.5
4,B4,0.3
5,B5,0.6
6,B6,0.5
7,B7,0.4
8,B8,1.1
9,B9,0.2
10,B10,3.4
11,B11,0.3
